# Measurements as given in the RNAGym collection of RNA variant scans (doi:10.1073/pnas.2313332121).
# This sample holds only a part of the variants without activity.
# B1: TPR 5TU (parent)
# chain: GGAUCUUCUCGAUCUAACAAAAAAGACAAAUCUGCCACAAAGCUUGAGAGCAUCUUCGGAUGCAGAGGCGGCAGCCUUCGGUGGCGCGAUAGCGCCAACGUUCUCAACUAUGACACGCAAAACGCGUGCUCCGUUGAAUGGAGUUUAUCAUG
# Variants of: B1
# Experiment: polymerase ribozyme fitness, log enrichment relative to wild type (log ratio); higher = more active; in vitro selection for triplet polymerase activity
# Procedure, shortened: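 A heterodimeric triplet polymerase ribozyme had each of its subunits mutagenized by PCR into a library, which was transcribed. One round of in vitro selection, done in triplicate, annealed each library with a biotinylated primer, its partner subunit and triplets, then incubated it frozen at −7 °C before gel excision of extended constructs, streptavidin-bead capture and RT-PCR. Fitness is the logarithm of genotype enrichment relative to wild-type enrichment, based on Illumina sequencing of inputs and outputs and inverse-variance-weighted replicate averages. A base-2 logarithm is used, and genotypes were kept only with ≥10 input reads and ≥1 read per output.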
row,Variant,polymerase ribozyme fitness (log ratio)
1,C57G G59C G86A A142G,-3.23
2,C57G G80A G84A,-0.169
3,G58C G83C G117C,-0.409
4,C57A U102C C103U,-2.76
5,G58C A97G A98U U145C,-0.616
6,G58C C79G A107U U134A U139C,≤ -4.2
7,G58C G68A G94U C96G,≤ -4.2
8,C57G G84U A89C G112C U139C C149A,≤ -4.2
9,G58C U82G C99G,-1.45
10,C57U C93A G126C,-0.766
11,C57U A66C,-3.93
12,C57U C93A,-1.61
13,C57U C93G,-3.36
14,G58A G92A C123G,-4.01
15,C57U C79G,-3.67
16,G58C G83A G84U G92U U135A U139G G141A,≤ -4.2
17,G58A C87U C108U A142C,-3.89
18,C57G G67C,-4.16
19,C57U C85G,-2.48
20,G58A C87A A98G A121C,≤ -4.2
21,G58A G94A,-0.945
22,G58A G94C,-0.674
23,C57A G117U,0.691
24,C57U C85A G100U A115G U135A G141C,≤ -4.2

row,Variant,polymerase ribozyme fitness (log ratio)
1,C57U A91U U102G G152U,-3.9
2,C57G A121U U135C,-2.26
3,G58C U111G C116A A137C,≤ -4.2
4,G58C A66C C87G U139A,≤ -4.2
5,C57U C63U G65U G88A A138U,≤ -4.2
6,C57A C93G,-3.05
7,C57A C93U,-1.11
8,C57U A97G,-0.11
9,C57U U61A G81C A107U,≤ -4.2
10,G58A A73U U101G U102A U109A,≤ -4.2
11,C57G G58U A137G G143A,-2.87
12,C57U C85G A142C A150G,≤ -4.2
13,C57U C95U C103G,-1.87
14,G58A U145G,0.851
15,G58A A60C C63A U82G G88C C95A A113G A147G,≤ -4.2
16,C57G A91G,-4.08
17,C57U U130G C131U,-4.19
18,C57U A113C,-2.27
19,G58A C85A,-1.11
20,G58A A64U G74A C79A U90C C96A C149A,≤ -4.2
21,C57U G92C A97C U145A,0.369
22,C57U U61G G86A A89U,-3.74
23,G58A C75U C96G,0.314
24,C57U C69G G84A C85G,≤ -4.2

row,Variant,polymerase ribozyme fitness (log ratio)
1,C57G C96G U145A,-0.71
2,G58A C75U A91G C95G,≤ -4.2
3,G58C C85U,-1.17
4,G58C C79U C85G G141U,≤ -4.2
5,C57G U78A G84A G94C C103U C105A G133U G140U U144C,≤ -4.2
6,G58A A91C,≤ -4.2
7,G58C G83U C85G,-3.33
8,G58C U102A C114A,-4.12
9,C57A G86U C123U C125U,-0.745
10,C57G G88A C96U U139C A142G,≤ -4.2
11,C57U C85A A98C,-1.23
12,G58A A97U A107U,-4.18
13,G58C A60G,0.746
14,G58C U61G U146G,-3.76
15,C57A G59U U77A C99G,≤ -4.2
16,G58A C75G C125G C129A U151G,≤ -4.2
17,G58C U134G,-3.93
18,C57A U135C,-1.62
19,C57U A91G A97G U135A G143A,≤ -4.2
20,G58C U78G C85G A106U A113G U144C,≤ -4.2
21,G58A C63G G86U G94C A137C G141U U151C,≤ -4.2
22,C57A U104G A120U,-0.824
23,C57A G83C G141A,-0.777
24,C57A G92U,-0.638

row,Variant,polymerase ribozyme fitness (log ratio)
1,C57U G126C,0.553
2,G58C A66G G140U,≤ -4.2
3,G58C G83U,-2.88
4,C57G G86C,-3.04
5,C57G G86A,-1
6,G58C G62C C95G,-3.72
7,C57A U102G,-1.73
8,G58C C63U U102G A106U G126A C132A,≤ -4.2
9,C57U G84A,-0.782
10,C57G G71A C96A U146A,-4.05
11,C57U C85A G133C G136A,-1.86
12,G58C A122G A150C,-3.46
13,G58A U146G,0.231
14,C57U G58U,0.297
15,G58A A121C,0.557
16,C57A C87U C103G,-2.01
17,C57U G94C C116U,0.445
18,G58C G80C C95U,≤ -4.2
19,C57U G128U,-3.2
20,C57U A66C G92U C93A,≤ -4.2
21,G58C G70C G141A,≤ -4.2
22,G58C C96A A115U G128U,≤ -4.2
23,G58C A89G,-0.995
24,C57U C75U A107U U127C A150G,≤ -4.2

row,Variant,polymerase ribozyme fitness (log ratio)
1,C57A G84U A89U G92U C118U U151A,≤ -4.2
2,C57G C75U C108A A110G,≤ -4.2
3,C57G C79U,-2.13
4,G58C C103A U145G,-1.84
5,C57U G83C,-0.999
6,C57U A97G G128C G141C,-3.99
7,C57G A91G G100A C123A C131A,≤ -4.2
8,C57A G62C C76U A91U C108U G140U U144G C149G,≤ -4.2
9,C57U G83A G88A A89G U134G,≤ -4.2
10,G58C G83C G117C C131U,-0.976
11,C57G C76A C95U C129G A137C U144G,≤ -4.2
12,G58A G86U A119U,-2.06
13,C57U U102A C103U,-1.15
14,G58A G86U,-1.12
15,G58A C85U A115U U144G,-1.46
16,G58A A64G A91C A147U,≤ -4.2
17,G58C G86U C105A,-2.89
18,C57U C87U C116U C118U A119C G136A,0.419
19,C57A C105U,1.29
20,G58A A98G G100A U104G A113G A119U A120U A122U U145C,≤ -4.2
21,G58C U61A G74U U77G C79U G80C C87A,≤ -4.2
22,C57U U135G,-4.05
23,G58A U61A A107G C118G A119G,≤ -4.2
24,C57U C85U G143A,-0.317

row,Variant,polymerase ribozyme fitness (log ratio)
1,C57U U82A C93A G112U C116U,≤ -4.2
2,C57G G68U G94U C116G,≤ -4.2
3,G58C C87U U135A,-2.15
4,C57A G58A,1.15
5,C57A G58U,0.207
6,C57U G59A C85U C95G,-2.02
7,C57U C116G G124C G141C U145G,≤ -4.2
8,G58C G152A,-2.01
9,G58A C93U,-2
10,C57U C95A A97C C123A,-0.924
11,C57A G100C,≤ -4.2
12,C57G U146A,-0.273
13,C57G C85U G117U C118G,-1.51
14,G58A G83A G140U,-3.64
15,C57U C87U C103G,-1.94
16,C57G,-0.448
17,C57U,-0.0371
18,G58A G59A A122G U148C,-2.64
19,C57U G88U G100A A107C,≤ -4.2
20,G58A C96A A97G A106C A119U,-1.42
21,C57G G58A A91G,-3.24
22,C57G U82A A98G,-3.69
23,C57U A142C,-0.377
24,C57G C114A,-3.32

row,Variant,polymerase ribozyme fitness (log ratio)
1,C57G C114U,-1.83
2,G58A U61A G88C G133U,≤ -4.2
3,C57A G70A G86U C96A C99U U134C U146C,≤ -4.2
4,G58A C103A,-1.19
5,C57U G84C C95A C116G G136U A138C,-4.17
6,C57G A150G,-1.23
7,C57U C95G U127C U139G A142G,-4.04
8,C57G G92U,-0.526
9,G58A C87U G100C A122C G126A G141U,≤ -4.2
10,C57U G59C C95G C108U U148A,≤ -4.2
11,G58C C85A A110C U111G,≤ -4.2
12,G58A G83U,0.174
13,G58A G88U C96U C118A C125A G133A,≤ -4.2
14,G58A U82C G92C A110U G136A,≤ -4.2
15,G58C C87A U109C U130G,≤ -4.2
16,C57G C123U U145A,-0.237
17,C57G A89U A98U,-1.18
18,G58A G80C,≤ -4.2
19,C57A U78G A97G G117A A122G,≤ -4.2
20,G58C C63U C95G,-2.14
21,C57A G65A G84U A120G,-3.08
22,C57U C105A,-0.73
23,C57U C105G,-0.3
